Test: label from the status in PepcDB records

Sequence | protein production
MAQTQTFRRTCFLLAIFILISVSGIGTASEFRVWPGQSIQDAVDSASPGDIILVESGEFNESIRVNKENLTIESASGNPDDIFIAGDTPISYVFEVVANDVKINFFSITDGRCGIFLNNVENCVINGNKISNQEAGIYLLNSRNNLLTNNMVYSNEDCGLKLLASSENIIYGNYFDNVENARDNRFNVWNNSKGNYWSDYGGTDENGDGIGDTPYAINPEVGSMDYRPLIEYSQEAPILPKALFTSDVTEGYAPLVVRFKDFSEDAASRLWDFGDGNFSSYPNPQHTYLNEGTYVVSLTVSNENGSDSASVTVYVRDASELAGPMLPKAQFIYNTTSGHIPLVIKFVDISENADCVTWYFGDGKTSCCPEPEHTFCCPGSYTVSLAAINENGTSSASIVVNVLPAESVESSEDTENSANTGSGSDKNNACNIVNETDADASEKAGDPELITRSENTDSLGNSIIEYASDTTDKFADAENSINAEATENSESDSNGGGEGTGTARIIHREELEAIKDSVISTASSNILKETERALENETLKVQKNVEDFVDDSLPESVGDSLPEMEQRIAPWIPSFLGLAGVIFIVSVMKRGRRRRQK | failed
MHPLLRRLDLNLLLVFDALYRHRNVGTAASELAISASAFSHALGRLRQGLDDELFLRQGNRMQPTQRAEHLAAAVAAALRALGEGLEEWRPFVPGQSQRTFVFAATDYTAFALLPPLMNRLQHSAPGVRLRLVNAERKLSVEALASGRIDFALGYDEEHERLPEGIQAHDWFADRYVVVARRDHPRLAGAPTLEGYLAERHAVVTPWNEDSGVIDRLLARSGLRREVAVQLPTVLAALFLAGSTDFLLTAPRHAARALAEAAGLALYPAPFDIPPYVLRLYSHVQHVGRDAHAWMIGQLKGLDISRTG | not failed
MCSYARATDANGESFIYCRTWQGQFFRFKLEDRVYDYVTTFAKSDACLATDPDDPTKIYCALNEYNKITCIDLTKNPEDSGFETDVCGIQGPGAYQDGHVSVARLNNPQQILSMHDPETGEKVIYICDANNNCVRMYNMETKLMSTVAGIGGKSGYAAGNPTVSRMNRPYGICITPENDIYVADAGNKVIMKLAFMLEHHHHHH | failed
MAADHTDVLIVGAGPTGLFAGFYVGMRGLSFRFVDPLPEPGGQLTALYPEKYIYDVAGFPKVYAKDLVKGLVEQVAPFNPVYSLGERAETLEREGDLFKVTTSQGNAYTAKAVIIAAGVGAFEPRRIGAPGEREFEGRGVYYAVKSKAEFQGKRVLIVGGGDSAVDWALNLLDTARRITLIHRRPQFRAHEASVKELMKAHEEGRLEVLTPYELRRVEGDERVRWAVVFHNQTQEELALEVDAVLILAGYITKLGPLANWGLALEKNKIKVDTTMATSIPGVYACGDIVTYPGKLPLIVLGFGEAAIAANHAAAYANPALKVNPGHSSEKAAPGT | not failed
EPTFVVAQIKEIIDHPDSDHLHICQAEINDGKTVQIVCGAPNASVGLKTVAALPGAMMPNGSLIFPGKLRGEDSFGMLCSARELALPNAPQVRGIIELSDQVIVGESFDANK | failed
MTDIIREYYNKNSKNEWLRLNDPYNRLELFSTMYMIKEYFPQEGKILDIGSGPGRYSIELLKRGYEVSLMDLSEKSIDMAKNNIESMGLKANDYICGDALYLDFIKDNTFDGILLMGPMYHVKSREDRIRILENCMRILKPGGIILIAYINSLGVLKVGLSDFPQEYKDINKIYDLFDEKGFSQEESFTETYFTVPEKAISEVNEVGFNILSRAGAESFLSGQAFYMTKYYLEDKEIYFNLLKVATEKCEDERFRDSTEHLIIVAKK | failed
MASHDHHHHHHDHEHDHEKSDGGEGKASWVGKDGKVYHSHDGLAPHSHEPIYSPGYFSRRAPPLHDRNFSERAFTVGIGGPVGTGKTALMLALCRFLRDKYSLAAVTNDIFTKEDGEFLVKNGALPEERIRAVETGGCPHAAIREDISINLGPLEELSNLFKADLLLCESGGDNLAANFSRELADYIIYIIDVSAGDKIPRKGGPGITQADLLVINKTDLAAAVGADLSVMERDSLRMRDGGPFVFAQVKHGLGVEEIVNHVMHSWEHATGKKRQ | not failed
MDFAYSPKVQELRERVSAFMEAHVYPAEAVFERQVAEGDRWQPTAIMEELKAKAKAEGLWNLFLPESEYGAGLANHEYAPLAEIMGRSLIGPEPFNCAAPDTGNMEVLVRYGSEEQKRTWLEPLLSGEIRSAFAMTEPGVASSDATNMEARAERQGDDWVINGRKWWTSGACDPRCKILIFMGLTNPDAPRHQQHSMILVPVDTPGVKILRPLPVFGYDDAPHGHAEVLFENVRVPYENVILGEGRGFEIAQGRLGPGRIHHCMRSIGMAERALELMCKRAVSRTAFGKPLARLGGNIDHIADSRMEINMARLLTLQAAYMMDTVGNKIAQSEIAQIKVVAPNVALKVIDRAIQMHGGAGVSNDFPLAYWYAMQRTLRLADGPDEVHRAAIGKFELGKYVPREML | failed
MVLMRYVGKRDLFTVGKYLGTIMQGVGFVVALPVFVAIIYGEGNLQSFIIPAFISLGAGTVLKRYLPEECSVRLKHGMMVACLAWLWAGLIGSLIMISALNIDFTNAFFENMSAWTGSGLTIFSSVESLPKSILFLRSLEQWIGGLGVVIVVIGILIRPGTAASRLYKSEARDERIKPSIANTVKTIWWIYITYTVLGIVLYGLTGMPLFDAINNTLTNLSTGGMSIKNMNIGYYHSAAVYLVTMLLMILGGTSFLVHYQLIKGRFFSVLHDIQLQATVVFISIFTILAVYVGGVAPLESIYHVISALSCTGSSISSTPQMVAWPAYFKVLLITCMLIGMAAGSTTGAVKIIRVITVLKGVYWEIMRILAPEGSVMPRKISGKSVSDTEIREAGSYISLYFVLLFFTWSVLVVYGYDPLNSLFEAASAQGNVGLSMGITSFNLPVVPKMALILSMWLGRLEIIPVIVLIRGLVEAFKAG | failed
LKMLRDMTGLPHNRKCFDCDQRGPTYVNMTVGSFVCTSCSGSLRGLNPPHRVKSISMTTFTQQEIEFLQKHGNEVCKQIWLGLFDDRSSAIPDFRDPQKVKEFLQEKYEKKRWYVPPEQAK | not failed
MGRLGWVDPESFMQRNHELMDAYSAGKLAMEEFMAFSLEPMAGRTPEEVDHLVGPWVEDVIEPIIYSDACKCIAQHRAKGDRILVISASGVHLVKPIAERLGIDEVLGIELDVQHGVYSGATVGVLTYREGKITRLMEWLDAEGENLEGASFYSDSRNDLPLLLKVDHPNVVNPDPVLLEHAQQAGWPVHTWV | failed
MTNSNNRQSEYPVDPLFLDRWSPRAFDGSPMPKEHLLTILDAAHWAPSASNHQPWRFVYAHKDSEDWPLFVELLMEGNQKWAKNASVLLFVISRDHTISHEGEKKPSATHSFDAGAAWFSLAMQAHLLGYHAHGMGGIFKDRIVEKLDIPDGFKVEAGVAIGTLTDKSILPDDLAEREVPSKRVPLADVAFEGRFTGKAD | not failed
MHSIQSPRLRQHFPRRSPKKLALKKSGGLGHRAKASHCYRIVLYSHDTMGLGHKRRNLLIAQTLQKSRLPVEILVITGIEEGNEALTAAGINYVNLPSLRKNGDGSYSGRDLDLPLEKLIAWRSQLILKTIQQFQPDVLMVDNVPRGVERELDPSLKYLRQRPESLCVLGLRDILDQPGTVQRDWGQADNERAIRRYYDAVWVYGDPQVYDLRHEYGFAPDVTAKMRPLGYFHQGDRLQHLTKPWQETLSNWKLPSRFILGAVGGGQDGETLAIAFAQIPFTADLPGVLLTGPFMPESVRQKLKVSAQNNPDLTILPYFSEPTMLMWAAERVITMGGYNTTCEILSFQKPALIIPRIKPRQEQWLRATRLKQLGLVDVLHPDQVNAQNLTAWLHSAPTNQYNKPVLNLRATQQLPLVLGQLLSTRNCFMSQAC | failed
MSGSLEIPGLDDGLLPVETGYGLFQGTAKKRVVICNDNDKFRHSGPLPRALCGSFAAIGLLPLPVVETRPAPPPKVAPITPALQGKACGQAVFEGLRNKNAVETVDNLPALRQTARTGKRWKALESLMQETPAIIYKIVPETLWTAARAEGMFEGAAIDLTDGFIHFSTAKQVAETAARHFSGQVDLLLIAVDGAALGDKLVYEPSRGGDLFPHLYAPLPFSAVLWETPLSLDHDGQHQFPEILLEHHHHHH | failed
MKKKSFSIVIAGGGSTFTPGIVLMLLDHLEEFPIRKLKLYDNDKERQDRIAGACDVFIREKAPDIEFAATTDPEEAFTDVDFVMAHIRVGKYAMRALDEQIPLKYGVVGQETCGPGGIAYGMRSIGGVLEILDYMEKYSPDAWMLNYSNPAAIVAEATRRLRPNSKILNICDMPVGIEDRMAQILGLSSRKEMKVRYYGLNHFGWWTSIQDQEGNDLMPKLKEHVSQYGYIPKTEAEAVEASWNDTFAKARDVQAADPDTLPNTYLQYYLFPDDMVKKSNPNHTRANEVMEGREAFIFSQCDMITREQSSENSEIKIDDHASYIVDLARAIAYNTGERMLLIVENNGAIANFDPTAMVEVPCIVGSNGPEPITVGTIPQFQKGLMEQQVSVEKLTVEAWAEKSFQKLWQALILSKTVPNARVARLILEDLVEANKDFWPELDQSPTRIS | not failed
RKEMTAACTPRRRIINLTSVLSLQEEINEQGHEVLREMLHNHSFVGCVNPQWALAQHQTKLYLLNTTKLSEELFYQILIYDFANFGVLRLSEPAPLFDLAMLALDSPESGWTEEDGPKEGLAEYIVEFLKKKAEMLADYFSLEIDEEGNLIGLPLLIDNYVPPLEGLPIFILRLATEVNWDEEKECFESLSKECAMFYSIRKQYISEESTLSGQQSEVPGSIPNSWKWTVEHIVYKALRSHILPPKHFTEDGNILQLANLPDLYKVFERC | failed
MPFLFPKFWVMSAPHDTHVSRRLRRGLASACAVVTAIAAFSPAHAAPSPNKAGPMSGSTGRTTVGQLLTPAGQLTTLGDLPLNEALSPDGRYLIVSNNGQGTQSLQVIKTATGKVVQTIPYKSPESLYMGLAFSPDGTHLFASAAGNHKIRTYHFDCGKLVETSAIQMPVVSPKLTKVNLYPAGLAVTNDSKRLVVADQLADAVSVIDLATNKIQTTHIGHRPVWVTLSKDSTKAFVSSQGGADVAEVDITKSQPLATHKINVGFHPNKSVLTPDGKSLYVANGDADTISVVDVASHRQTATIPVNRNGSKLVGANPTGLALSQDGKRLYVTNSGHNEVAVINAATRKVIGDIPTGWYPTQVLAHDGKLSITSAKGLGAGPNNGPGHPNPTDPRDTAENQYSGSMIKGLLSTVNGMTQRPWPS | failed
MASSDVLRQPDKNARPLALSGHVGFDSLPDQLVNKSTSQGFCFNILCIGETGIGKSTLMDTLFNTNFENFESSHFEPKVKLRAQTYDLQESNVRLKLTVVNTVGFGDQMNKQESYQHIVDYIDTQFESYLQEELKIKRSLHNYHDSRIHACLYFIAPSGHSLKSLDLVTMKKLDSKVNIIPVIAKADTISKSELHKFKIKIMSELVSNGVQIYQFPIDDETVAKINTAMNGHLPFAVVGSTEEVNIGNKMVKARQYPWGVVQVENENHCDFVKLREMLICVNMEDLREQTHTRHYELYRRCKLEEMGFKDTDPECKPVSLQQTYEAKRQEFLGELQRREEEMRQTFVQRVKEKEAELKDAERELQGKFEQLKRLHADEKSKLEEKRRSLEEEMSVFSKRKAATELLQAQSFNTSTNNKKDKDRKNSGFM | not failed

Source: a protein production outcome set (Wang et al. 2014)
